# Assay results reported in FireProtDB.
# Several values for one entry are separate records, joined by “and”; a condition that tells them apart may be missing. Equal entries are not always repeated.
# Conditions: whole UniProt chain shown
# [1] = Staphylococcus aureus (strain NCTC 8325 / PS 47), pH 8.5, Urea, fluorescence, Tris-Cl, transition: 2, reversible: yes
# [2] = Salmonella phage P22, pH 7.3, Thermal, CD, Potassium phosphate 10 mM, KCl 100 mM, reversible: yes
# [3] = Salmonella phage P22, pH 7.5, 20 °C, GdnHCl, CD, Tris-HCl 50 mM, KCl 100 mM, reversible: yes
# [4] = Salmonella phage P22, pH 7.5, 20 °C, GdnHCl, Fluorescence, Tris-HCl 50 mM, KCl 100 M, reversible: yes
# [5] = Salmonella phage P22, pH 7.5, 20 °C, Urea, Fluorescence, Tris-HCl 50 mM, KCl 100 mM, reversible: yes
# [6] = Salmonella phage P22, pH 7.5, 25 °C, GdnHCl, CD, Tris-HCl 50 mM, KCl 250 mM
# [7] = Salmonella phage P22, pH 7.5, 25 °C, GdnHCl, Fluorescence, Tris-HCl 50 mM, KCl 100 M, reversible: yes
# [8] = Salmonella phage P22, pH 7.5, 25 °C, Urea, CD, Tris 50 mM, KCl 50 mM
# [9] = Salmonella phage P22, pH 7.5, 25 °C, Urea, CD, Tris-Cl 10 mM, KCl 250 mM
# [10] = Salmonella phage P22, pH 7.5, 25 °C, Urea, CD, Tris-HCl 50 mM, KCl 250 mM, reversible: yes
# [11] = Salmonella phage P22, pH 7.5, Thermal, CD, Tris-HCl 50 mM, KCl 250 mM, reversible: yes
# [12] = Salmonella phage P22, pH 7.5, Thermal, CD, Tris-HCl 50 mM, KCl 100 M, reversible: yes
# [13] = Staphylococcus aureus, pH 7, 30 °C, GdnHCl, CD, Sodium phosphate/Sodium sulfate 1.0 mM/10 mM/, reversible: yes
# [14] = Staphylococcus aureus, pH 7, Thermal, DSC, phosphate 100 mM, reversible: yes(75%)
# [15] = Staphylococcus aureus, pH 7.5, 25 °C, Urea, CD, Tris-HCl 0.1 M, KCl 0.2 M, reversible: yes
# [16] = Saccharolobus solfataricus (strain ATCC 35092 / DSM 1617 / JCM 11322 / P2), pH 5.5, Thermal, CD, Acetate 50 mM
protein,measurement,setting,value
"Putative peptidyl-prolyl cis-trans isomerase wild type, Q2FZU9 (protein) MANYPQLNKEVQQGEIKVVMHTNKGDMTFKLFPNIAPKTVENFVTHAKNGYYDGITFHRVINDFMIQGGDPTATGMGGESIYGGAFEDEFSLNAFNLYGALSMANSGPNTNGSQFFIVQMKEVPQNMLSQLADGGWPQPIVDAYGEKGGTPWLDQKHTVFGQIIDGETTLEDIANTKVGPQDKPLHDVVIESIDVEE",denaturant m value,[1],0.85 kcal/mol/M and 1.18 kcal/mol/M
same,denaturant midpoint (higher = more stable),[1],3.19 M and 1.83 M
same,unfolding free energy,[1],11.1 kJ/mol and 9.08 kJ/mol
"Scaffolding protein wild type, P26748 (protein) MEPTTEIQATEDLTLSGDHAAASADSLVVDNANDNAGQEEGFEIVLKDDETAPKQDPAKNAEFARRRIERKRQRELEQQMEAVKRGELPESLRVNPDLPPQPDINAYLSEEGLAKYDYDNSRALAAFNAANTEWLMKAQDARSNAVAEQGRKTQEFTQQSAQYVEAARKHYDAAEKLNIPDYQEKEDAFMQLVPPAVGADIMRLFPEKSAALMYHLGANPEKARQLLAMDGQSALIELTRLSERLTLKPRGKQISSAPPADQPITGDVSAANKDAIRKQMDAAASKGDVETYRKLKAKLKGIR",Tm,"Salmonella phage P22, pH 7.6, Thermal, Fluorescence, phosphate 0.3 micro M, NaCl 0.3 micro M",58 °C
"Methylated-DNA--protein-cysteine methyltransferase wild type, Q97VW7 (protein) MLVYGLYKSPLGYITVAKDDKGFIMLDFCDCVEGNSRDDSSFTEFFHKLDLYFEGKPINLREPINLKTYPFRLSVFKEVMKIPWGKVMTYKQIADSLGTSPRAVGMALSKNPILLIIPCHRVIAENGIGGYSRGVKLKRALLELEGVKIPE",Tm,"Saccharolobus solfataricus (strain ATCC 35092 / DSM 1617 / JCM 11322 / P2), pH 7.4, Thermal, DSF, PBS, transition: 2",82.9 °C
"Transcriptional repressor arc wild type, P03050 (protein) MKGMSKMPQFNLRWPREVLDLVRKVAEENGRSVNSEIYQRVMESFKKEGRIGA",Tm,[2],54 °C
same,heat capacity change of unfolding,[2],1.6 kcal/mol/K
same,unfolding enthalpy (van 't Hoff),[2],297 kJ/mol
same,unfolding free energy,[2],30.5 kJ/mol
same,denaturant m value,[3],3.27 kcal/mol/M
same,unfolding free energy,[3],46.4 kJ/mol
same,denaturant m value,[4],2.98 kcal/mol/M
same,unfolding free energy,[4],41.7 kJ/mol
same,denaturant m value,[5],1.37 kcal/mol/M
same,denaturant midpoint (higher = more stable),[5],6.7 M
same,unfolding free energy,[5],40.1 kJ/mol
same,denaturant m value,[6],3 kcal/mol/M
same,denaturant midpoint (higher = more stable),[6],1.1 M
same,unfolding free energy,[6],43.1 kJ/mol
same,denaturant m value,[7],3.03 kcal/mol/M
same,unfolding free energy,[7],42.1 kJ/mol
same,Tm,"Salmonella phage P22, pH 7.5, 25 °C, Thermal, CD, Tris-HCl 50 mM, KCl 50 mM",56.8 °C
same,unfolding free energy,"Salmonella phage P22, pH 7.5, 25 °C, Thermal, CD, Tris-HCl 50 mM, KCl 250 mM",46 kJ/mol
same,denaturant m value,[8],1.5 kcal/mol/M
same,unfolding free energy,[8],43.5 kJ/mol
same,denaturant m value,[9],1.21 kcal/mol/M
same,unfolding free energy,[9],41.5 kJ/mol
same,denaturant m value,[10],1.36 kcal/mol/M and 1.57 kcal/mol/M and 1.64 kcal/mol/M
same,denaturant midpoint (higher = more stable),[10],4.65 M
same,unfolding free energy,[10],26.4 kJ/mol and 45.6 kJ/mol and 46 kJ/mol
same,Tm,"Salmonella phage P22, pH 7.5, Thermal, CD, Potassium phosphate 10 mM, KCl 100 mM",54 °C
same,Tm,"Salmonella phage P22, pH 7.5, Thermal, CD, Tris-HCl 50 mM, KCl 50 mM",56.8 °C
same,Tm,[11],58.3 °C and 59 °C and 57.9 °C
same,unfolding enthalpy (van 't Hoff),[11],261 kJ/mol and 245 kJ/mol
same,Tm,[12],53.4 °C
same,unfolding enthalpy (van 't Hoff),[12],231 kJ/mol
"wild type, Q9EYL5 (protein) MTKKLLTLFIVSMLILTACGKKESATTSSKNGKPLVVVYGDYKCPYCKELDEKVMPKLRKNYIDNHKVEYQFVNLAFLGKDSIVGSRASHAVLMYAPKSFLDFQKQLFAAQQDENKEWLTKELLDKHIKQLHLDKETENKIIKDYKTKDSKSWKAAEKDKKIAKDNHIKTTPTAFINGEKVEDPYDYESYEKLLKDKIK",denaturant midpoint (higher = more stable),[13],1.66 M
same,unfolding free energy,[13],33.5 kJ/mol
same,unfolding free energy,"Staphylococcus aureus, pH 7, 30 °C, Thermal, DSC, phosphate 100 mM, reversible: yes(75%)",48.7 kJ/mol and 65.9 kJ/mol
same,unfolding free energy,"Staphylococcus aureus, pH 7, 30 °C, Thermal, Fluorescence, Sodium phosphate 100 mM, EDTA 1 mM, reversible: yes",46.4 kJ/mol
same,unfolding free energy,"Staphylococcus aureus, pH 7, 30 °C, Thermal, Fluorescence, Sodium phosphate 100 mM, reversible: yes",29.3 kJ/mol
same,unfolding free energy,"Staphylococcus aureus, pH 7, 30 °C, Thermal, Fluorescence, phosphate 100 mM, reversible: yes(75%)",34.7 kJ/mol and 52.8 kJ/mol
same,Tm,[14],68.4 °C
same,heat capacity change of unfolding,[14],2.22 kcal/mol/K
same,unfolding enthalpy (calorimetric),[14],618 kJ/mol
same,unfolding enthalpy (van 't Hoff),[14],572 kJ/mol
same,denaturant midpoint (higher = more stable),[15],4.2 M and 5.6 M and 5.62 M
same,unfolding free energy,[15],36.4 kJ/mol and 51.5 kJ/mol and 54 kJ/mol
"Acylphosphatase wild type, Q97ZL0 (protein) MKKWSDTEVFEMLKRMYARVYGLVQGVGFRKFVQIHAIRLGIKGYAKNLPDGSVEVVAEGYEEALSKLLERIKQGPPAAEVEKVDYSFSEYKGEFEDFETY",unfolding free energy,"Saccharolobus solfataricus (strain ATCC 35092 / DSM 1617 / JCM 11322 / P2), pH 5.5, 28 °C, GdnHCl, CD, Acetate 50 mM",48.7 kJ/mol
same,unfolding free energy,"Saccharolobus solfataricus (strain ATCC 35092 / DSM 1617 / JCM 11322 / P2), pH 5.5, 81 °C, GdnHCl, CD, Acetate 50 mM",20.7 kJ/mol
same,Tm,[16],101 °C
same,heat capacity change of unfolding,[16],1.15 kcal/mol/K
same,unfolding enthalpy (van 't Hoff),[16],438 kJ/mol
"Cytidine deaminase wild type, Q9S3M0 (protein) MDVEKLIAESKKAREQAYVPYSKFPVGAALLAEDGTIYHGCNIENSAYSMTNCAERTAFFKAVSDGVRSFKALAVVADTEGPVSPCGACRQVIAEFCNGSMPVYLTNLKGDIEETTVAKLLPGAFSKEDLSYAAEQ",unfolding free energy,"Sporosarcina psychrophila, pH 7, 25 °C, GdnHCl, CD, potassium phosphate 20 mM, reversible: no",12.6 kJ/mol
"Cytochrome c2 wild type, P00094 (protein) MKISLTAATVAALVLAAPAFAGDAAKGEKEFNKCKTCHSIIAPDGTEIVKGAKTGPNLYGVVGRTAGTYPEFKYKDSIVALGASGFAWTEEDIATYVKDPGAFLKEKLDDKKAKTGMAFKLAKGGEDVAAYLASVVK",denaturant midpoint (higher = more stable),"Rhodobacter capsulatus (strain ATCC BAA-309 / NBRC 16581 / SB1003), pH 7.5, 30 °C, GdnHCl, CD, Tris 20 mM",1.54 M
